± gives the standard deviation of the averaged measurements.
System: ATP
Experiment: switch fluorescence ratio, 500 uM ATP over buffer (Cy3 cluster intensity, sum of 5 cycles each) (fold (ratio)); higher = stronger signal-on switching upon ATP binding; sequences stand for … in TCGTCGGCAGCGTCAGATGTGTATAAGAGACAGTTTTTTTTTTTTTTTTTTTTTTTTT…TC
Details: aptamer strand: ATP DNA aptamer (quencher-CACCTGGGGGAGTATTGCGGAGGAAGG + anchor), 100 nM annealed; ATP concentration: 500 uM
Outline: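 Five buffer/ATP imaging cycles were run on Cy3-labelled switching-strand clusters on a modified Illumina MiSeq flow-cell, with NaOH stripping and re-annealing between cycles. In each cycle, clusters annealed to 100 nM quencher-labelled ATP aptamer were imaged in selection buffer, then after 15 min with 500 uM ATP at 22 °C. Per cluster, the fluorescence ratio is summed target-cycle over summed buffer-cycle Cy3 intensity, averaged per switch-domain sequence. Only clusters within 100-1000 RFU were kept.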
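Further: ATP exposure 15 min at 22 °C before imaging.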

TTGGTGTAGC
switch fluorescence ratio: 0.972 ± 0.026

TTGGTGTGAC
switch fluorescence ratio: 1.05 ± 0.065

TTGGTGTTCA
switch fluorescence ratio: 0.996 ± 0.013

TTGGTTAAAT
switch fluorescence ratio: 1.01 ± 0.026

TTGGTTAATG
switch fluorescence ratio: 1.01 ± 0.019

TTGGTTCCAT
switch fluorescence ratio: 1.02 ± 0.017

TTGGTTCGAC
switch fluorescence ratio: 0.962 ± 0.04

TTGGTTCGTT
switch fluorescence ratio: 0.994 ± 0.025

TTGGTTGACG
switch fluorescence ratio: 0.963 ± 0.041

TTGGTTGCG
switch fluorescence ratio: 1.02 ± 0.026

TTGGTTGTCG
switch fluorescence ratio: 1.02 ± 0.019

TTGGTTTACT
switch fluorescence ratio: 1.22 ± 0.3

TTGGTTTCCC
switch fluorescence ratio: 1.01 ± 0.02

TTGGTTTTGC
switch fluorescence ratio: 0.99 ± 0.019

TTGGTTTTT
switch fluorescence ratio: 0.993 ± 0.019

TTGTAAGGGT
switch fluorescence ratio: 0.978 ± 0.017

TTGTAATTAC
switch fluorescence ratio: 1.3 ± 0.44

TTGTAATTCG
switch fluorescence ratio: 1.02 ± 0.05

TTGTAATTTT
switch fluorescence ratio: 0.991 ± 0.017

TTGTACGGGG
switch fluorescence ratio: 0.985 ± 0.03

TTGTACTATC
switch fluorescence ratio: 1.01 ± 0.063

TTGTAGCTGT
switch fluorescence ratio: 1.12 ± 0.13

TTGTAGGGAT
switch fluorescence ratio: 1.43 ± 0.77

TTGTAGGGGG
switch fluorescence ratio: 1.17 ± 0.4

TTGTAGTTAT
switch fluorescence ratio: 1.09 ± 0.16

TTGTATATAT
switch fluorescence ratio: 1.49 ± 0.81

TTGTATGGGA
switch fluorescence ratio: 1.001 ± 0.0069

TTGTATGTGT
switch fluorescence ratio: 0.983 ± 0.032

TTGTATTGCC
switch fluorescence ratio: 1.02 ± 0.018

TTGTATTTGC
switch fluorescence ratio: 0.976 ± 0.031

TTGTCAGAGT
switch fluorescence ratio: 1.001 ± 0.0015

TTGTCATCTG
switch fluorescence ratio: 1.01 ± 0.012

TTGTCCCGTG
switch fluorescence ratio: 1.01 ± 0.026

TTGTCGCTGT
switch fluorescence ratio: 1.14 ± 0.19

TTGTCGGGTT
switch fluorescence ratio: 1.01 ± 0.018

TTGTCGTCTC
switch fluorescence ratio: 0.986 ± 0.041

TTGTCTGGGC
switch fluorescence ratio: 0.984 ± 0.032

TTGTGAAGCA
switch fluorescence ratio: 1.025 ± 0.0054

TTGTGAAGGT
switch fluorescence ratio: 1.05 ± 0.044

TTGTGAGTGC
switch fluorescence ratio: 0.91 ± 0.023

TTGTGATAGA
switch fluorescence ratio: 1.06 ± 0.052

TTGTGATCTT
switch fluorescence ratio: 0.961 ± 0.02

TTGTGATGGA
switch fluorescence ratio: 0.9896 ± 0.008

TTGTGATTCT
switch fluorescence ratio: 0.97032 ± 0.00028

TTGTGATTGT
switch fluorescence ratio: 1.01 ± 0.016

TTGTGCAAGT
switch fluorescence ratio: 1.01 ± 0.013

TTGTGCGACT
switch fluorescence ratio: 0.98 ± 0.019

TTGTGCTATT
switch fluorescence ratio: 1.26 ± 0.32

TTGTGGAATT
switch fluorescence ratio: 0.966 ± 0.02

TTGTGGATG
switch fluorescence ratio: 0.962 ± 0.017

TTGTGGGG
switch fluorescence ratio: 0.992 ± 0.021

TTGTGGGGCG
switch fluorescence ratio: 0.986 ± 0.068

TTGTGGGTCC
switch fluorescence ratio: 1.013 ± 0.0093

TTGTGGGTGT
switch fluorescence ratio: 1.004 ± 0.0082

TTGTGGTATT
switch fluorescence ratio: 0.99 ± 0.0084

TTGTGGTCGT
switch fluorescence ratio: 0.9859 ± 0.0074

TTGTGGTGTG
switch fluorescence ratio: 0.984 ± 0.049

TTGTGTCAGT
switch fluorescence ratio: 0.9885 ± 0.0045

TTGTGTGACT
switch fluorescence ratio: 0.991 ± 0.04

TTGTGTGCAG
switch fluorescence ratio: 0.959 ± 0.053

TTGTGTGTGG
switch fluorescence ratio: 0.976 ± 0.021

TTGTGTGTGT
switch fluorescence ratio: 0.993 ± 0.019

TTGTGTTAGG
switch fluorescence ratio: 0.994 ± 0.031

TTGTGTTGGC
switch fluorescence ratio: 1.02 ± 0.038

TTGTGTTTCG
switch fluorescence ratio: 0.967 ± 0.028

TTGTGTTTTA
switch fluorescence ratio: 0.998 ± 0.02

TTGTTAAATC
switch fluorescence ratio: 1.02 ± 0.038

TTGTTAAGAG
switch fluorescence ratio: 0.986 ± 0.043

TTGTTAAGTG
switch fluorescence ratio: 1.02 ± 0.1

TTGTTACATC
switch fluorescence ratio: 0.941 ± 0.016

TTGTTACATG
switch fluorescence ratio: 1.012 ± 0.0051

TTGTTACTTT
switch fluorescence ratio: 1 ± 0.017

TTGTTAGAGT
switch fluorescence ratio: 0.9809 ± 0.0019

TTGTTAGTTG
switch fluorescence ratio: 1.01 ± 0.045

TTGTTATAGA
switch fluorescence ratio: 0.998 ± 0.024

TTGTTCCGTT
switch fluorescence ratio: 0.9874 ± 0.0066

From the supplement of paper PMC10126150
